Reference: the supplement of paper PMC11246515
± gives the standard deviation of the averaged measurements.

Experiment: total protein half-life in vivo (active degradation + dilution); higher = more stable protein
[1] = E. coli NCM3722 delta-clpP delta-lon delta-hslV, growth: N-lim chemostat, doubling time 6 h
[2] = E. coli NCM3722 delta-clpP, growth: N-lim chemostat, doubling time 6 h
[3] = E. coli NCM3722 delta-hslV, growth: N-lim chemostat, doubling time 6 h
[4] = E. coli NCM3722 delta-lon, growth: N-lim chemostat, doubling time 6 h
[5] = E. coli NCM3722 delta-smpB, growth: N-lim chemostat, doubling time 6 h
[6] = wild type E. coli NCM3722, growth: C-lim chemostat, doubling time 3 h
[7] = wild type E. coli NCM3722, growth: C-lim chemostat, doubling time 6 h
[8] = wild type E. coli NCM3722, growth: C-lim chemostat, doubling time 12 h
[9] = wild type E. coli NCM3722, growth: N-lim chemostat, doubling time 6 h
[10] = wild type E. coli NCM3722, growth: N-lim chemostat, doubling time 12 h
[11] = wild type E. coli NCM3722, growth: P-lim chemostat, doubling time 6 h
[12] = wild type E. coli NCM3722, growth: P-lim chemostat, doubling time 12 h

MSSRKELANAIRALSMDAVQKAKSGHPGAPMGMADIAEVLWRDFLKHNPQNPSWADRDRFVLSNGHGSMLIYSLLHLTGYDLPMEELKNFRQLHSKTPGHPEVGYTAGVETTTGPLGQGIANAVGMAIAEKTLAAQFNRPGHDIVDHYTYAFMGDGCMMEGISHEVCSLAGTLKLGKLIAFYDDNGISIDGHVEGWFTDDTAMRFEAYGWHVIRDIDGHDAASIKRAVEEARAVTDKPSLLMCKTIIGFGSPNKAGTHDSHGAPLGDAEIALTREQLGWKYAPFEIPSEIYAQWDAKEAGQAKESAWNEKFAAYAKAYPQEAAEFTRRMKGEMPSDFDAKAKEFIAKLQANPAKIASRKASQNAIEAFGPLLPEFLGGSADLAPSNLTLWSGSKAINEDAAGNYIHYGVREFGMTAIANGISLHGGFLPYTSTFLMFVEYARNAVRMAALMKQRQVMVYTHDSIGLGEDGPTHQPVEQVASLRVTPNMSTWRPCDQVESAVAWKYGVERQDGPTALILSRQNLAQQERTEEQLANIARGGYVLKDCAGQPELIFIATGSEVELAVAAYEKLTAEGVKARVVSMPSTDAFDKQDAAYRESVLPKAVTARVAVEAGIADYWYKYVGLNGAIVGMTTFGESAPAELLFEEFGFTVDNVVAKAKELL
total protein half-life in vivo [1]: 3.63 ± 0.31 h
total protein half-life in vivo [2]: 3.35 ± 0.19 h
total protein half-life in vivo [3]: 3.03 ± 0.057 h
total protein half-life in vivo [4]: 3.47 ± 0.1 h
total protein half-life in vivo [5]: 3.033 ± 0.021 h
total protein half-life in vivo [6]: 3.22 ± 0.077 h
total protein half-life in vivo [7]: 5.19 ± 0.23 h
total protein half-life in vivo [8]: 9.96 ± 0.12 h
total protein half-life in vivo [9]: 3.15 ± 0.11 h
total protein half-life in vivo [10]: 4.48 ± 0.056 h
total protein half-life in vivo [11]: 5.65 ± 0.089 h
total protein half-life in vivo [12]: 10.7 ± 0.21 h

MSTFKPLKTLTSRRQVLKAGLAALTLSGMSQAIAKDELLKTSNGHSKPKAKKSGGKRVVVLDPGHGGIDTGAIGRNGSKEKHVVLAIAKNVRSILRNHGIDARLTRSGDTFIPLYDRVEIAHKHGADLFMSIHADGFTNPKAAGASVFALSNRGASSAMAKYLSERENRADEVAGKKATDKDHLLQQVLFDLVQTDTIKNSLTLGSHILKKIKPVHKLHSRNTEQAAFVVLKSPSVPSVLVETSFITNPEEERLLGTAAFRQKIATAIAEGVISYFHWFDNQKAHSKKR
total protein half-life in vivo [1]: 5.02 ± 0.67 h
total protein half-life in vivo [2]: 5.75 ± 0.35 h
total protein half-life in vivo [3]: 4.89 ± 0.52 h
total protein half-life in vivo [4]: 4.977 ± 0.029 h
total protein half-life in vivo [5]: 4.41 ± 0.32 h
total protein half-life in vivo [6]: 2.23 ± 0.033 h
total protein half-life in vivo [7]: 3.5509 ± 0.0011 h
total protein half-life in vivo [8]: 5 ± 0.2 h
total protein half-life in vivo [9]: 5.08 ± 0.94 h
total protein half-life in vivo [10]: 8.42 ± 0.29 h
total protein half-life in vivo [11]: 4.48 ± 0.47 h
total protein half-life in vivo [12]: 8.52 ± 0.41 h

MSTIEERVKKIIGEQLGVKQEEVTNNASFVEDLGADSLDTVELVMALEEEFDTEIPDEEAEKITTVQAAIDYINGHQA [P0A6A8]
total protein half-life in vivo [1]: 7.12 ± 0.32 h
total protein half-life in vivo [2]: 5.957 ± 0.032 h
total protein half-life in vivo [3]: 5.79 ± 0.28 h
total protein half-life in vivo [4]: 7.19 ± 0.17 h
total protein half-life in vivo [5]: 4.78 ± 1.6 h
total protein half-life in vivo [6]: 3.14 ± 0.069 h
total protein half-life in vivo [7]: 4.95 ± 1.3 h
total protein half-life in vivo [8]: 8.88 ± 0.96 h
total protein half-life in vivo [9]: 4 ± 0.13 h
total protein half-life in vivo [11]: 5 ± 1.2 h
total protein half-life in vivo [12]: 10.8 ± 0.47 h

MSTIVIFLAALLACSLLAGWLIKVRSRRRQLPWTNAFADAQTRKLTPEERSAVENYLESLTQVLQVPGPTGASAAPISLALNAESNNVMMLTHAITRYGISTDDPNKWRYYLDSVEVHLPPFWEQYINDENTVELIHTDSLPLVISLNGHTLQEYMQETRSYALQPVPSTQASIRGEESEQIELLNIRKETHEEYALSRPRGLREALLIVASFLMFFFCLITPDVFVPWLAGGALLLLGAGLWGLFAPPAKSSLREIHCLRGTPRRWGLFGENDQEQINNISLGIIDLVYPAHWQPYIAQDLGQQTDIDIYLDRHVVRQGRYLSLHDEVKNFPLQHWLRSTIIAAGSLLVLFMLLFWIPLDMPLKFTLSWMKGAQTIEATSVKQLADAGVRVGDTLRISGTGMCNIRTSGTWSAKTNSPFLPFDCSQIIWNDARSLPLPESELVNKATALTEAVNRQLHPKPEDESRVSASLRSAIQKSGMVLLDDFGDIVLKTADLCSAKDDCVRLKNALVNLGNSKDWDALVKRANAGKLDGVNVLLRPVSAESLDNLVATSTAPFITHETARAAQSLNSPAPGGFLIVSDEGSDFVDQPWPSASLYDYPPQEQWNAFQKLAQMLMHTPFNAEGIVTKIFTDANGTQHIGLHPIPDRSGLWRYLSTTLLLLTMLGSAIYNGVQAWRRYQRHRTRMMEIQAYYESCLNPQLITPSESLIE
total protein half-life in vivo [1]: 7.278 ± 0.055 h
total protein half-life in vivo [2]: 6.37 ± 0.32 h
total protein half-life in vivo [3]: 6.48 ± 0.55 h
total protein half-life in vivo [4]: 6.72 ± 0.7 h
total protein half-life in vivo [5]: 5.73 ± 0.16 h
total protein half-life in vivo [6]: 3.25 ± 0.17 h
total protein half-life in vivo [8]: 13.9 ± 1.9 h
total protein half-life in vivo [9]: 6.06 ± 0.22 h
total protein half-life in vivo [10]: 11.6 ± 1.6 h
total protein half-life in vivo [11]: 6.84 ± 0.8 h

MSTQEATLQQPLLQAIDLKKHYPVKKGMFAPERLVKALDGVSFNLERGKTLAVVGESGCGKSTLGRLLTMIEMPTGGELYYQGQDLLKHDPQAQKLRRQKIQIVFQNPYGSLNPRKKVGQILEEPLLINTSLSKEQRREKALSMMAKVGLKTEHYDRYPHMFSGGQRQRIAIARGLMLDPDVVIADEPVSALDVSVRAQVLNLMMDLQQELGLSYVFISHDLSVVEHIADEVMVMYLGRCVEKGTKDQIFNNPRHPYTQALLSATPRLNPDDRRERIKLSGELPSPLNPPPGCAFNARCRRRFGPCTQLQPQLKDYGGQLVACFAVDQDENPQR
total protein half-life in vivo [1]: 6.25 ± 0.25 h
total protein half-life in vivo [2]: 5.92 ± 0.29 h
total protein half-life in vivo [3]: 6.41 ± 0.085 h
total protein half-life in vivo [4]: 6.11 ± 0.94 h
total protein half-life in vivo [5]: 5.605 ± 0.031 h
total protein half-life in vivo [6]: 2.88 ± 0.33 h
total protein half-life in vivo [7]: 6.28 ± 0.43 h
total protein half-life in vivo [8]: 11.6 ± 0.25 h
total protein half-life in vivo [9]: 6.08 ± 0.62 h
total protein half-life in vivo [10]: 13.1 ± 0.71 h
total protein half-life in vivo [11]: 6.16 ± 0.27 h
total protein half-life in vivo [12]: 13.1 ± 0.21 h

MSTRTPSSSSSRLMLTIGLCFLVALMEGLDLQAAGIAAGGIAQAFALDKMQMGWIFSAGILGLLPGALVGGMLADRYGRKRILIGSVALFGLFSLATAIAWDFPSLVFARLMTGVGLGAALPNLIALTSEAAGPRFRGTAVSLMYCGVPIGAALAATLGFAGANLAWQTVFWVGGVVPLILVPLLMRWLPESAVFAGEKQSAPPLRALFAPETATATLLLWLCYFFTLLVVYMLINWLPLLLVEQGFQPSQAAGVMFALQMGAASGTLMLGALMDKLRPVTMSLLIYSGMLASLLALGTVSSFNGMLLAGFVAGLFATGGQSVLYALAPLFYSSQIRATGVGTAVAVGRLGAMSGPLLAGKMLALGTGTVGVMAASAPGILVAGLAVFILMSRRSRIQPCADA
total protein half-life in vivo [8]: 5.24 h

MSTTNHDHHIYVLMGVSGSGKSAVASEVAHQLHAAFLDGDFLHPRRNIEKMASGEPLNDDDRKPWLQALNDAAFAMQRTNKVSLIVCSALKKHYRDLLREGNPNLSFIYLKGDFDVIESRLKARKGHFFKTQMLVTQFETLQEPGADETDVLVVDIDQPLEGVVASTIEVIKKGK
total protein half-life in vivo [1]: 5.07 ± 0.67 h
total protein half-life in vivo [2]: 4.474 ± 0.042 h
total protein half-life in vivo [3]: 4.01 h
total protein half-life in vivo [5]: 4.121 ± 0.011 h
total protein half-life in vivo [6]: 3.02 ± 0.08 h
total protein half-life in vivo [7]: > 8 h
total protein half-life in vivo [8]: 8.67 h
total protein half-life in vivo [9]: 3.92 ± 0.44 h
total protein half-life in vivo [10]: 6.38 ± 0.14 h
total protein half-life in vivo [11]: 4.1 h
total protein half-life in vivo [12]: 9.14 ± 0.42 h

MSTTWFVGADWLAEHIDDPEIQIIDARMASPGQEDRNVAQEYLNGHIPGAVFFDIEALSDHTSPLPHMLPRPETFAVAMRELGVNQDKHLIVYDEGNLFSAPRAWWMLRTFGVEKVSILGGGLAGWQRDDLLLEEGAVELPEGEFNAAFNPEAVVKVTDVLLASHENTAQIIDARPAARFNAEVDEPRPGLRRGHIPGALNVPWTELVREGELKTTDELDAIFFGRGVSYDKPIIVSCGSGVTAAVVLLALATLDVPNVKLYDGAWSEWGARADLPVEPVK
total protein half-life in vivo [1]: 4.69 ± 0.49 h
total protein half-life in vivo [2]: 3.98 ± 0.5 h
total protein half-life in vivo [3]: 4.63 ± 0.66 h
total protein half-life in vivo [4]: 6.38 ± 2 h
total protein half-life in vivo [5]: 3.69 ± 0.23 h
total protein half-life in vivo [6]: 3.13 ± 0.094 h
total protein half-life in vivo [7]: 5.74 ± 0.92 h
total protein half-life in vivo [8]: 9.46 ± 0.71 h
total protein half-life in vivo [9]: 4.51 ± 0.59 h
total protein half-life in vivo [10]: 6.87 ± 0.19 h
total protein half-life in vivo [11]: 5.58 ± 0.12 h
total protein half-life in vivo [12]: 11 ± 0.56 h

MSVFSLKIDIADNKFFNGETSPLFSQSQAKLARQFHQKIAGYRPTPLCALDDLANLFGVKKILVKDESKRFGLNAFKMLGGAYAIAQLLCEKYHLDIETLSFEHLKNAIGEKMTFATTTDGNHGRGVAWAAQQLGQNAVIYMPKGSAQERVDAILNLGAECIVTDMNYDDTVRLTMQHAQQHGWEVVQDTAWEGYTKIPTWIMQGYATLADEAVEQMREMGVTPTHVLLQAGVGAMAGGVLGYLVDVYSPQNLHSIIVEPDKADCIYRSGVKGDIVNVGGDMATIMAGLACGEPNPLGWEILRNCATQFISCQDSVAALGMRVLGNPYGNDPRIISGESGAVGLGVLAAVHYHPQRQSLMEKLALNKDAVVLVISTEGDTDVKHYREVVWEGKHAVAP
total protein half-life in vivo [7]: 4.2 h

MSVIETATVPLAQQQADALLNVKDLRVTFSTPDGDVTAVNDLNFSLRAGETLGIVGESGSGKSQTAFALMGLLAANGRIGGSATFNGREILNLPEHELNKLRAEQISMIFQDPMTSLNPYMRVGEQLMEVLMLHKNMSKAEAFEESVRMLDAVKMPEARKRMKMYPHEFSGGMRQRVMIAMALLCRPKLLIADEPTTALDVTVQAQIMTLLNELKREFNTAIIMITHDLVVVAGICDKVLVMYAGRTMEYGNARDVFYQPVHPYSIGLLNAVPRLDAEGETMLTIPGNPPNLLRLPKGCPFQPRCPHAMEICSSAPPLEEFTPGRLRACFKPVEELL
total protein half-life in vivo [1]: 5.379 ± 0.026 h
total protein half-life in vivo [2]: 5.7109 ± 0.0028 h
total protein half-life in vivo [3]: 5.53 ± 0.098 h
total protein half-life in vivo [4]: 4.81 ± 0.18 h
total protein half-life in vivo [5]: 5.34 ± 0.22 h
total protein half-life in vivo [6]: 2.84 ± 0.31 h
total protein half-life in vivo [7]: 5.49 ± 0.35 h
total protein half-life in vivo [8]: 11.4 ± 1.9 h
total protein half-life in vivo [9]: 5.29 ± 0.21 h
total protein half-life in vivo [10]: 11.4 ± 1.2 h
total protein half-life in vivo [11]: 5.715 ± 0.02 h
total protein half-life in vivo [12]: 11.6 ± 0.23 h
